Among the data in article PMC5724578 (Biochemistry, 2017) are Kd values, retold here.

The term Kd denotes the concentration at which binding is half-saturated. Low readings indicate a tighter complex, high ones a looser complex.

The target in the experiment is VASP EVH1 domain (wild type) (human, UniProt P50552 2-115). The experiment is described as follows: NMR titration.

B1: Zyxin proline rich region, residues 41-140 (domain or fragment, human, UniProt Q15942 41-140, looked up)
chain: PGDSEPPPAPGAQRAQMGRVGEIPPPPPEDFPLPPPPLAGDGDDAEGALGGAFPPPPPPIEESFPPAPLEEEIFPSPPPPPEEEGGPEAPIPPPPQPREK
On to B1, for which binding was put at a Kd of 32.2 ± 1.7 µM.
